Experimental data: the supplement of paper PMC10126150
± gives the standard deviation of the averaged measurements.

Test system: ATP
Assay: switch fluorescence ratio, 500 uM ATP over buffer (Cy3 cluster intensity, sum of 5 cycles each) (fold (ratio)); higher = stronger signal-on switching upon ATP binding; sequences stand for … in TCGTCGGCAGCGTCAGATGTGTATAAGAGACAGTTTTTTTTTTTTTTTTTTTTTTTTT…TC
Details: aptamer strand: ATP DNA aptamer (quencher-CACCTGGGGGAGTATTGCGGAGGAAGG + anchor), 100 nM annealed; ATP concentration: 500 uM
In short: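 Imaging in selection buffer was followed by imaging after 15 min with 500 uM ATP at 22 °C, for Cy3-labelled switching-strand clusters annealed to 100 nM quencher-labelled ATP aptamer on a modified Illumina MiSeq flow-cell. Five of these buffer/ATP cycles ran, separated by NaOH stripping and re-annealing. The fluorescence ratio per cluster is summed target-cycle over summed buffer-cycle Cy3 intensity, averaged per switch-domain sequence; clusters outside 100-1000 RFU were removed.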
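Also: ATP exposure 15 min at 22 °C before imaging.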

Sequence: CGCCTGGCCG
- switch fluorescence ratio: 0.9439 ± 0.0079

Sequence: CGCCTGGGAT
- switch fluorescence ratio: 1.03 ± 0.0027

Sequence: CGCGATGGCG
- switch fluorescence ratio: 0.98 ± 0.017

Sequence: CGCGATTATT
- switch fluorescence ratio: 1.09 ± 0.04

Sequence: CGCGCAGAT
- switch fluorescence ratio: 1.02 ± 0.025

Sequence: CGCGCTTTCA
- switch fluorescence ratio: 1.02 ± 0.027

Sequence: CGCGGAGGGG
- switch fluorescence ratio: 1.01 ± 0.049

Sequence: CGCGGAGTAG
- switch fluorescence ratio: 0.9869 ± 0.0043

Sequence: CGCGGGCACT
- switch fluorescence ratio: 1.04 ± 0.04

Sequence: CGCGGGGGGC
- switch fluorescence ratio: 1.05 ± 0.084

Sequence: CGCGGGGTAG
- switch fluorescence ratio: 1.038 ± 0.0072

Sequence: CGCGGGGTGT
- switch fluorescence ratio: 1.05 ± 0.03

Sequence: CGCGGTAATT
- switch fluorescence ratio: 1.05 ± 0.063

Sequence: CGCGGTATCT
- switch fluorescence ratio: 1.02 ± 0.033

Sequence: CGCGGTATTA
- switch fluorescence ratio: 1.02 ± 0.013

Sequence: CGCGGTTAAA
- switch fluorescence ratio: 1.18 ± 0.19

Sequence: CGCGTGAAGA
- switch fluorescence ratio: 1.12 ± 0.11

Sequence: CGCGTTCGGA
- switch fluorescence ratio: 1.04 ± 0.015

Sequence: CGCTAAAGGG
- switch fluorescence ratio: 1.042 ± 0.0042

Sequence: CGCTAATCAA
- switch fluorescence ratio: 1.09 ± 0.042

Sequence: CGCTACGATG
- switch fluorescence ratio: 1.082 ± 0.0078

Sequence: CGCTAGGTTG
- switch fluorescence ratio: 1.01 ± 0.026

Sequence: CGCTATGGGA
- switch fluorescence ratio: 1.02 ± 0.026

Sequence: CGCTATTATA
- switch fluorescence ratio: 1.09 ± 0.052

Sequence: CGCTATTATT
- switch fluorescence ratio: 1.05 ± 0.04

Sequence: CGCTCCGCCT
- switch fluorescence ratio: 2.36 ± 0.11

Sequence: CGCTCCGGGC
- switch fluorescence ratio: 1.23 ± 0.058

Sequence: CGCTCTAAAA
- switch fluorescence ratio: 1.01 ± 0.011

Sequence: CGCTGAGATC
- switch fluorescence ratio: 1.016 ± 0.002

Sequence: CGCTGGGTAC
- switch fluorescence ratio: 2.24 ± 0.28

Sequence: CGCTGTCAGC
- switch fluorescence ratio: 1.002 ± 0.0037

Sequence: CGCTTAACCG
- switch fluorescence ratio: 1.04 ± 0.043

Sequence: CGCTTATACG
- switch fluorescence ratio: 1.78 ± 0.58

Sequence: CGCTTATCAT
- switch fluorescence ratio: 0.98 ± 0.03

Sequence: CGCTTCATTA
- switch fluorescence ratio: 1.01 ± 0.063

Sequence: CGCTTGGCTC
- switch fluorescence ratio: 1.078 ± 0.0093

Sequence: CGCTTTGACT
- switch fluorescence ratio: 1.08 ± 0.021

Sequence: CGGAAAAAGT
- switch fluorescence ratio: 0.97 ± 0.013

Sequence: CGGAAAAATC
- switch fluorescence ratio: 1.53 ± 0.76

Sequence: CGGAAAAATT
- switch fluorescence ratio: 1.04 ± 0.12

Sequence: CGGAAACTTT
- switch fluorescence ratio: 1.0088 ± 0.00067

Sequence: CGGAAAGGGA
- switch fluorescence ratio: 1.01 ± 0.022

Sequence: CGGAAATGAA
- switch fluorescence ratio: 0.9824 ± 0.0028

Sequence: CGGAAGCTAA
- switch fluorescence ratio: 1.46 ± 0.16

Sequence: CGGAAGGCTA
- switch fluorescence ratio: 1.025 ± 0.0069

Sequence: CGGAAGGGGA
- switch fluorescence ratio: 1.05 ± 0.027

Sequence: CGGAAGTTCT
- switch fluorescence ratio: 0.993 ± 0.049

Sequence: CGGAATAGCT
- switch fluorescence ratio: 1.22 ± 0.024

Sequence: CGGAATTTC
- switch fluorescence ratio: 1.11 ± 0.05

Sequence: CGGACACGAA
- switch fluorescence ratio: 0.981 ± 0.022

Sequence: CGGACACGTT
- switch fluorescence ratio: 0.983 ± 0.052

Sequence: CGGACCAGCG
- switch fluorescence ratio: 0.965 ± 0.0086

Sequence: CGGACGAGAG
- switch fluorescence ratio: 0.998 ± 0.022

Sequence: CGGACGTGAC
- switch fluorescence ratio: 2.79 ± 0.2

Sequence: CGGACTAGGT
- switch fluorescence ratio: 1.02 ± 0.011

Sequence: CGGACTCATT
- switch fluorescence ratio: 1.09 ± 0.15

Sequence: CGGACTGGGC
- switch fluorescence ratio: 0.959 ± 0.051

Sequence: CGGAGAAAGG
- switch fluorescence ratio: 1.03 ± 0.069

Sequence: CGGAGAAGTT
- switch fluorescence ratio: 1 ± 0.015

Sequence: CGGAGATCGG
- switch fluorescence ratio: 0.999 ± 0.013

Sequence: CGGAGGAAGG
- switch fluorescence ratio: 1.044 ± 0.0072

Sequence: CGGAGGCTTG
- switch fluorescence ratio: 1.01 ± 0.061

Sequence: CGGAGGGTGT
- switch fluorescence ratio: 0.997 ± 0.033

Sequence: CGGAGGTAGC
- switch fluorescence ratio: 1.03 ± 0.058

Sequence: CGGAGTCGCC
- switch fluorescence ratio: 1.01 ± 0.012

Sequence: CGGAGTTAAG
- switch fluorescence ratio: 1.07 ± 0.044

Sequence: CGGAGTTACA
- switch fluorescence ratio: 1.068 ± 0.0072

Sequence: CGGAGTTTTT
- switch fluorescence ratio: 0.9971 ± 0.0058

Sequence: CGGATACGGT
- switch fluorescence ratio: 0.997 ± 0.04

Sequence: CGGATAGTGC
- switch fluorescence ratio: 1.07 ± 0.11

Sequence: CGGATCGGAT
- switch fluorescence ratio: 0.976 ± 0.04

Sequence: CGGATGATAG
- switch fluorescence ratio: 1 ± 0.059

Sequence: CGGATGGAGG
- switch fluorescence ratio: 0.988 ± 0.042

Sequence: CGGATGGCCT
- switch fluorescence ratio: 1.03 ± 0.019

Sequence: CGGATGTTCA
- switch fluorescence ratio: 1.001 ± 0.0059

Sequence: CGGATTAGAG
- switch fluorescence ratio: 0.9641 ± 0.0032

Sequence: CGGATTGAAT
- switch fluorescence ratio: 1 ± 0.072

Sequence: CGGATTGTGT
- switch fluorescence ratio: 1.018 ± 0.0055

Sequence: CGGATTTAAG
- switch fluorescence ratio: 0.9979 ± 0.0066

Sequence: CGGATTTAGA
- switch fluorescence ratio: 0.987 ± 0.043

Sequence: CGGCAATGGT
- switch fluorescence ratio: 1.87 ± 1.1

Sequence: CGGCACCCTT
- switch fluorescence ratio: 0.997 ± 0.017

Sequence: CGGCAGCGGG
- switch fluorescence ratio: 1.03 ± 0.013

Sequence: CGGCAGCTGA
- switch fluorescence ratio: 1 ± 0.011

Sequence: CGGCAGGGTG
- switch fluorescence ratio: 1.05 ± 0.0092

Sequence: CGGCAGGTAA
- switch fluorescence ratio: 1.05 ± 0.03

Sequence: CGGCATGGGT
- switch fluorescence ratio: 0.989 ± 0.018

Sequence: CGGCCAGGGG
- switch fluorescence ratio: 1.5 ± 0.09

Sequence: CGGCCATTTG
- switch fluorescence ratio: 0.993 ± 0.059

Sequence: CGGCCCCCGT
- switch fluorescence ratio: 1.4 ± 0.46

Sequence: CGGCCTGTGC
- switch fluorescence ratio: 1.03 ± 0.087

Sequence: CGGCGATGTT
- switch fluorescence ratio: 0.9867 ± 0.0076

Sequence: CGGCGATTTA
- switch fluorescence ratio: 1.003 ± 0.009

Sequence: CGGCGCCCA
- switch fluorescence ratio: 0.997 ± 0.01

Sequence: CGGCGCCTGT
- switch fluorescence ratio: 1.01 ± 0.05

Sequence: CGGCGGGCGA
- switch fluorescence ratio: 1.03 ± 0.02

Sequence: CGGCGGGGGA
- switch fluorescence ratio: 1.04 ± 0.043

Sequence: CGGCGTACAT
- switch fluorescence ratio: 1.04 ± 0.02

Sequence: CGGCGTAGTC
- switch fluorescence ratio: 1.02 ± 0.035

Sequence: CGGCGTGGGG
- switch fluorescence ratio: 1.03 ± 0.027
